Key:
[1] = molecular target: human CX3CR1 (human) (UniProt P49238); assay: cell-based or functional assay
[2] = molecular target: mouse CX3CR1 (mouse) (UniProt Q9Z0D9); assay: cell-based or functional assay
Chain of mouse CX3CR1 (mouse) (Q9Z0D9 whole entry): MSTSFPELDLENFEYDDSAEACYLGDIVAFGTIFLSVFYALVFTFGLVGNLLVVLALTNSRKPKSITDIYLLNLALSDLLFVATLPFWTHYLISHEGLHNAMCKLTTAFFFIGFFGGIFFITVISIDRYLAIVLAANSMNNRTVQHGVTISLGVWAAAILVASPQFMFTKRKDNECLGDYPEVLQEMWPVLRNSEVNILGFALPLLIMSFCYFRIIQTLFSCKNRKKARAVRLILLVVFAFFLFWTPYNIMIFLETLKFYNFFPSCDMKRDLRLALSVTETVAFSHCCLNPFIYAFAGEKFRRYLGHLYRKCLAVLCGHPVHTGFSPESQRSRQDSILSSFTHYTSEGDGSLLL

Chain of human CX3CR1 (human) (P49238 whole entry): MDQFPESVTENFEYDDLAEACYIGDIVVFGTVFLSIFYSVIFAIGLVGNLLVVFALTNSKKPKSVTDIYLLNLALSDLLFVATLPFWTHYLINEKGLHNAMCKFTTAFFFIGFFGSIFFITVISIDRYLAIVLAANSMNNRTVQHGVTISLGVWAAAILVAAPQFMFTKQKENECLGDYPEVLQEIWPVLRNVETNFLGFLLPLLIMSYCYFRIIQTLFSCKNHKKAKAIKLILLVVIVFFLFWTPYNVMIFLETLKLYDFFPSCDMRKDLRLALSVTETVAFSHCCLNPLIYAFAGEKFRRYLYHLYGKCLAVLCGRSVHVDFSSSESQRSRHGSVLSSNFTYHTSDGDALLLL

mouse CX3CL1 (from UniProt O35188 25-337) (ligand)
EC50, ERK phosphorylation in CHO K1 huCX3CR1 cells [1]: 73 nM | EC50, ERK phosphorylation in CHO K1 mCX3CR1 cells [2]: 23 nM

From US20240117038A1
